The results in this text go back to the supplement of paper PMC10126150.

± gives the standard deviation of the averaged measurements.
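Also: ATP exposure 15 min at 22 °C before imaging.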

The series concerns ATP. Nature of the series: switch fluorescence ratio, 500 uM ATP over buffer (Cy3 cluster intensity, sum of 5 cycles each) (fold (ratio)); higher = stronger signal-on switching upon ATP binding; sequences stand for … in TCGTCGGCAGCGTCAGATGTGTATAAGAGACAGTTTTTTTTTTTTTTTTTTTTTTTTT…TC. Conditions: aptamer strand: ATP DNA aptamer (quencher-CACCTGGGGGAGTATTGCGGAGGAAGG + anchor), 100 nM annealed; ATP concentration: 500 uM. In a few lines:
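Switching-strand clusters labelled with Cy3 on a modified Illumina MiSeq flow-cell were annealed to 100 nM quencher-labelled ATP aptamer, imaged in selection buffer, and re-imaged after 15 min with 500 uM ATP at 22 °C. This was done over five cycles with NaOH stripping and re-annealing in between. The fluorescence ratio is summed target-cycle over summed buffer-cycle Cy3 intensity per cluster, averaged per switch-domain sequence, excluding clusters outside 100-1000 RFU.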
Regarding TCCTGGGTTG, the switch fluorescence ratio is 0.99 ± 0.066.
For GCATTGTCAA the value was 0.992 ± 0.07; for GGGGGGCCCG, 1.35 ± 0.45; for GGTTCCTATG, 0.9909 ± 0.0079.
For TGTGGCATGA the value was 0.9736 ± 0.0058; for AAATGCAAAG, 0.991 ± 0.016; for GTTAAGGATG, 1.012 ± 0.0071.
Next, TTGCTTCGGC: 0.976 ± 0.04; TCGGCTATTT: 1.03 ± 0.019.
As for GAGGAGGTTG, the switch fluorescence ratio was 1.027 ± 0.003.
As to CGGGGGCCGT, the switch fluorescence ratio is 0.936 ± 0.014.
For ATATTGAAGG, the switch fluorescence ratio came out at 0.981 ± 0.012.
Regarding ATTTAAAGAT, the switch fluorescence ratio was 0.987 ± 0.049.
Next, CGGGAGGGTC: 1.06 ± 0.012; ACTTTATTCT: 1.04 ± 0.02; AATGAAGGGG: 0.987 ± 0.031.
In the case of GGTCATTGTT, the switch fluorescence ratio is 0.9635 ± 0.0031.
CGTTAGGGAG: the switch fluorescence ratio came out at 0.95456 ± 0.00035.
Take TTTTGTGGAC: the switch fluorescence ratio was found to be 0.996 ± 0.034.
For CTATGTAGTC the value was 1.01 ± 0.019; for CGGGGTCGTA, 1 ± 0.047; for TTTGATACTC, 1.15 ± 0.091.
With GGGAGATATG, the switch fluorescence ratio worked out at 0.9788 ± 0.0095.
Regarding AGGGTACTTG, the switch fluorescence ratio came out at 1 ± 0.03.
In the case of CGATTTTGTT, the switch fluorescence ratio turned out to be 0.989 ± 0.034.
As to GGGATGAACG, the switch fluorescence ratio amounted to 1.04 ± 0.021.
With AAGGGTGGGT, the switch fluorescence ratio was determined as 0.9876 ± 0.0045.
For TACTTGGAAC, the switch fluorescence ratio was determined as 1.04 ± 0.012.
Turning to ATGCATAGTT, the switch fluorescence ratio came to 0.963 ± 0.017.
With TTTATTTCCA, the switch fluorescence ratio stood at 0.996 ± 0.03.
Next, GGTAACGTTC: 0.989 ± 0.015; TATATATTGC: 1.02 ± 0.03.
As for ATGATAGAAC, the switch fluorescence ratio turned out to be 1.03 ± 0.015.
For TTAATAGATT the value was 0.998 ± 0.021; for TAACAGTGGG, 1.02 ± 0.046.
For TCTAAAATTT, the switch fluorescence ratio turned out to be 1.15 ± 0.18.
On to GATAGTTGCG, for which the switch fluorescence ratio was found to be 1.03 ± 0.06.
Take CGTGCGGGTT: the switch fluorescence ratio was determined as 0.993 ± 0.047.
For TTGAGGGCAG the value was 1 ± 0.034; for ATCTGGGGCC, 1.01 ± 0.012.
Regarding CCGGCTTTAG, the switch fluorescence ratio was determined as 0.99 ± 0.015.
In the case of TGCATGATTG, the switch fluorescence ratio was 0.967 ± 0.02.
With AGCATAAGC, the switch fluorescence ratio came out at 1.04 ± 0.012.
For AAAAGTAAAG, the switch fluorescence ratio was found to be 0.987 ± 0.033.
On to TAAAGAAGGA, for which the switch fluorescence ratio was 0.977 ± 0.042.
TAGGAATCCA: the switch fluorescence ratio stood at 0.999 ± 0.012.
On to CTGGTAAGGT, for which the switch fluorescence ratio was found to be 0.9947 ± 0.0074.
For the sequence GAGGTGAGTG, the switch fluorescence ratio was 0.9921 ± 0.0066.
On to ACATGAGAAA, for which the switch fluorescence ratio amounted to 0.988 ± 0.052.
Consider TTTTAGAGCC, for which the switch fluorescence ratio came out at 1.04 ± 0.043.
On to GGGTATGAGG, for which the switch fluorescence ratio was 0.976 ± 0.032.
TAAGGCTCGG: the switch fluorescence ratio is 0.994 ± 0.02.
As for ATGGTGGCAG, the switch fluorescence ratio stood at 0.997 ± 0.054.
ATGCATTTGT: the switch fluorescence ratio was 1.01 ± 0.031.
Regarding CGTTTGAATA, the switch fluorescence ratio is 0.974 ± 0.052.
Next, GCTACTACTG: 1.05 ± 0.022; TTGGGAAGGA: 1.02 ± 0.042; TTTTCTTGCC: 1.09 ± 0.11.
For ATATTACTGC, the switch fluorescence ratio came out at 1.07 ± 0.02.
Turning to GATTAGGCTC, the switch fluorescence ratio is 1.03 ± 0.082.
As for CGTAAATTGG, the switch fluorescence ratio stood at 1.02 ± 0.013.
With AAGGGCGATT, the switch fluorescence ratio is 1.02 ± 0.055.
TTTCGATTGC: the switch fluorescence ratio turned out to be 1.004 ± 0.01.
With TAGGGCATGT, the switch fluorescence ratio was found to be 0.9798 ± 0.0026.
Consider TGGGCGCGGT, for which the switch fluorescence ratio was determined as 0.975 ± 0.018.
In the case of AGCTATGGGA, the switch fluorescence ratio worked out at 1.04 ± 0.015.
